Four compounds from patent publication US11135163B2, “Peptide hydrogel properties and its applications” (Kansas State University Research Foundation, priority 2014, dated 2021) can be followed below.

Data set [1] deals with HeLa cells. Put plainly: HeLa cell viability (CCK-8) in 3D h9e hydrogel. In kind it is cell-based. The settings on record: 3-day treatment, various concentrations of camptothecin, in h9e hydrogel. As for the experimental part: Cell culture and drug efficacy/diffusion tests: HeLa cells were grown in the hydrogel in 3D. Aliquots of HeLa cells solution were added into […] hydrogel with DMEM containing 10% FBS with a final peptide concentration of 0, 0.25, 0.5 and 1 wt %. 100 μl of cell mixture solution (3×10^4 cells per well) was seeded into a 96-well culture plate (Becton Dickinson Labware, Franklin Lakes, N.J.) and placed in an incubator (Nuair, Playmouth, Minn.) in a humidified 5% CO2 atmosphere at 37° C. for about 30 min. After complete hydrogelation, 10 μl of DMEM containing 0, 50 uM, 100 uM, or 200 uM camptothecin was added on top of the hydrogel to obtain camptothecin concentrations of 0 μM, 3.125 μM, 6.25 μM, and 12.5 μM, respectively, upon total diffusion in the hydrogel. Then, 50 ul of DMEM was carefully added to the top of the hydrogel to prevent drying during long-term incubation. All measurements were made at least in triplicate, and the plates were incubated for 3 days. A CCK-8 assay was used to determine cell viability after each treatment. 10 μL of CCK solution was added to each well. After 4 h of incubation, the absorbance at 450 nm was collected on a microplate reader (mQuant, Bio-Tek) and corrected by subtracting the background signal from a wall containing only 160 ul DMEM containing 10% FBS. […]

Data set [2] is described as follows: Gelation test of ECM ligand built-in or blended hydrogels. Type of data set: physicochemical. The note with it: 0.5% peptide solution triggered with 0.5% BSA solution, 37° C., 30 min. How it is done: In this Example, an ECM ligand RGD built-in peptide (i.e., FLIVI-GSII-GPGGDGPGGDGRGD (SEQ ID NO:69)) was formulated into a hydrogel at 0.5% peptide solution triggered with 0.5% BSA solution. Gelation test was performed at 37° C. for 30 min. Gel strength was about 500 Pa, similar as the regular h9e hydrogel (FIG. 18.). Peptide synthesis followed the same procedure described in Example V.
Rheology Measurements: The hydrogel samples were characterized for mechanical properties. Gelation was determined right after the peptide solution triggered using either metal ion (i.e., Ca++) or albumin proteins (i.e., BSA) using C-VOR 150 rheometer system at both room temperature and 37° C. following our previous procedure. The maximum gel strength after 24 hours was used as the gel strength. The hydrogel samples after 24 hours was used and loaded in the probe system, and examined at a single frequency (1 Hz) and steady shear strain (1%). For shear-thinning experiments, the samples were subjected to shear and then observe the strain of the storage (G′) and loss (G″) modulus as a function of time following our previous procedures.
Regular h9e peptide described in Example VI can be blended with ECM ligands and functional proteins. […]

A short description of data set [3]: Instantaneous gelation time sweep of peptide sequences 1, 3 and 4. Type of data set: physicochemical. The note with it: for final gel strength after 30 minute gelation time sweep: triggered with 100 mM CaCl2 solution (FIG. 12, 13). As for the experimental part:
Similar to the methods used in U.S. 2013/0018004. Hydrogels were prepared with peptide 1, 3, and 4 alone, or mixture of peptide sequence 1 and 4 at 1:1 ratio. Hydrogels were triggered by calcium ions and BSA alone or co-trigger (calcium ions+BSA).

For the compound `CC[C@@]1(O)C(=O)OCc2c1cc1n(c2=O)Cc2cc3ccccc3nc2-1` [Camptothecin, reference compound], the HeLa cell viability entry in data set [1] is “dose-dependent decrease in cell viability”.
Consider “FLIVI-GSII-GPGGDGPGGDGRGD (FLIVIGSIIGPGGDGPGGDGRGD; FLIVI-GSII N-terminal extension; Derivative of spider flagelliform silk protein and a trans-membrane segment of subunit IV in the dihydropyridine sensitive human muscle L-type calcium channel with built-in ECM ligand) [SEQ ID NO:69]”, for which the Gel strength entry in data set [2] is reported as “about 500 Pa”.
Take “FLIVIGSIIGPGVDPGGAD (Derivative of spider flagelliform silk protein and a trans-membrane segment of subunit IV in the dihydropyridine sensitive human muscle L-type calcium channel) [Sequence 4]”: in data set [3], the hydrogel formation entry is recorded as “yielded a peptide hydrogel” and the “final gel strength after 30 minute gelation time sweep” value came out at 496 Pa. For the same compound, in data set [3] (triggered with BSA), the gel strength result is recorded as “about 150 Pa”. Further, the gel strength entry in data set [3] (triggered with calcium) is given as “about 550 Pa”.
Take “FLIVIGSIIPGGGDGPGGD (Derivative of spider flagelliform silk protein and a trans-membrane segment of subunit IV in the dihydropyridine sensitive human muscle L-type calcium channel) [Sequence 3]”: in data set [3], the hydrogel formation entry is recorded as “yielded a peptide hydrogel” and the “final gel strength after 30 minute gelation time sweep” value stood at 196 Pa.
